Patent US20190233508A1 (Eli Lilly, published 2019)

Target: T1, Recombinant human IL-21 protein (25-155) (human, UniProt Q9HBE4 32-162)
T1 construct: also called recombinant IL-21; IL-21 recombinant protein
Assay: Quanterix Simoa sandwich pairing against recombinant IL-21 reference curve (100 ng/mL-1.0 fg/mL)
Method: The antibodies of the present invention, AbM2, Ab2-1, and Ab3-1, are conjugated to beads (Quanterix Cat #101360) at 0.5 mg/mL and are biotinylated according to the manufacturer's protocol at a ratio of 40 to 1 biotin to antibody. Nine combinations of the three antibody pairs are generated and analyzed against a recombinant IL-21 reference curve (100 ng/mL-1.0 fg/mL). The beads are diluted in bead diluent (Quanterix, Cat #100458) and the detection antibodies are diluted in sample/detection buffer (Quanterix, Cat #101359). Two pairs of antibodies are moved into further optimization due to the ability to discriminate IL-21 concentrations in the fg/mL range. The first pair is Ab2-1 and AbM2 which perform well in either orientation. The second pair is Ab3-21 as capture and Ab2-1 as detection.

T1 sequence (Q9HBE4 other isoform, or with tags, fused parts or gaps limits assumed): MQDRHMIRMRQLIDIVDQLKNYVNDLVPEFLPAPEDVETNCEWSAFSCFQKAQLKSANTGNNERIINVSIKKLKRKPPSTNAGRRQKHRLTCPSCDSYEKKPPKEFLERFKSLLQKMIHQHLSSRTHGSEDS

binding result	Binder
binds	anti-human IL-21 antibody Ab3-1 (antibody, mouse IgG1, kappa, V domains shown, also called Ab34; Ab3-21) VH: QVQLKQSAAELARPGASVKMSCKASGYFFTLYMMHWAKQRPGQNLEWIGYINPSSGYTEYNQKFKDKTTLTADKSSSTAYMQLSSLTSEDSAIYYCLTDFDYWGQGTSLTVSS VL: not shown
binds	anti-human IL-21 antibody AbM2 (antibody, V domains shown, In the Simoa assays it is biotinylated (40:1 biotin to antibody)) VH: QVQLVQSGAEVKKPGASVKVSCKASGYTFTDYWMHWVRQAPGQGLEWMGLIDTSDSYTIYNQKFKGRVTMTRDTSTSTVYMELSSLRSEDTAVYYCARYGPLAMDYWGQGTLVTVSS VL: DIQMTQSPSSLSASVGDRVTITCRASQDISNYLNWYQQKPGKAPKLLIYYTSRLHSGVPSRFSGSGSGTDFTLTISSLQPEDFATYYCQQFHTLRTFGGGTKVEIKR
